Experimental data published in patent US20030147847A1 (IMMUNEX, published 2003).

T1: NKG2D/Dap10 on transfected 293E cells (UniProt P26718 1-216; Q9UBK5 19-93)
T1 construct: whole, on cells; Co-expressed on 293 EBNA (293E) cells from the pDC409 vector; also called NKG2D+FLAG tagged Dap10
T1 sequence 1: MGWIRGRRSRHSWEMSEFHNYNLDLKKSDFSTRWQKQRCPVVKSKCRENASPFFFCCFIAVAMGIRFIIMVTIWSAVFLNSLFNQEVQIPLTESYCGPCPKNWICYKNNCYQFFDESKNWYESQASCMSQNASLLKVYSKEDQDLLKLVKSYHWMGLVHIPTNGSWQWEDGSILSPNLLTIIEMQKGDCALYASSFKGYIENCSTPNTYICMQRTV
T1 sequence 2: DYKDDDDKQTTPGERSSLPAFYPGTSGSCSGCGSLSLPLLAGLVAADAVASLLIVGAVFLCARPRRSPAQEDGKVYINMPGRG

T2: NKG2D alone on transfected 293 EBNA cells (UniProt P26718 1-216, limits assumed)
T2 construct: whole, on cells
T2 sequence (looked up): T1 sequence 1

T3: FLAG tagged Dap10 alone on transfected 293 EBNA cells (UniProt Q9UBK5 19-93)
T3 construct: whole, on cells
T3 sequence: T1 sequence 2

B1: MICA/Fc (Fc fusion, UniProt Q29983 24-307, looked up)
chain: EPHSLRYNLTVLSWDGSVQSGFLTEVHLDGQPFLRCDRQKCRAKPQGQWAEDVLGNKTWDRETRDLTGNGKDLRMTLAHIKDQKEGLHSLQEIRVCEIHEDNSTRSSQHFYYDGELFLSQNLETKEWTMPQSSRAQTLAMNVRNFLKEDAMKTKTHYHAMHADCLQELRRYLKSGVVLRRTVPPMVNVTRSEASEGNITVTCRASGFYPWNITLSWRQDGVSLSHDTQQWGDVLPDGNGTYQTWVATRICQGEEQRFTCYMEHSGNHSTHPVPSGKVLVLQSHW
notes: not shown: Fc portion not described
B2: MICB/Fc (Fc fusion, UniProt Q29980 23-309, looked up)
chain: AEPHSLRYNLMVLSQDGSVQSGFLAEGHLDGQPFLRYDRQKRRAKPQGQWAENVLGAKTWDTETEDLTENGQDLRRTLTHIKDQKGGLHSLQEIRVCEIHEDSSTRGSRHFYYDGELFLSQNLETQESTVPQSSRAQTLAMNVTNFWKEDAMKTKTHYRAMQADCLQKLQRYLKSGVAIRRTVPPMVNVTCSEVSEGNITVTCRASSFYPRNITLTWRQDGVSLSHNTQQWGDVLPDGNGTYQTWVATRIRQGEEQRFTCYMEHSGNHGTHPVPSGKALVLQSQRTD
notes: also called MICB1/FC; not shown: Fc portion not described
B3: human ULBP1-Fc fusion polypeptide (Fc fusion)
chain: WSRAGWVDTHCLCYDFIITPKSRPEPQWCEVQGLVDERPFLHYDCVNHKAKAFASLGKKVNVTKTWEEQTETLRDVVDFLKGQLLDIQVENLIPIEPLTLQARMSCEHEAHGHGRGSWQFLFNGQKFLLFDSNNRKWTALHPGAKKMTEKWEKNRDVTMFFQKISLGDCKMWLEEFLMYWEQMLDPTKPPSLAPGTTQPRSCDKTHTCPPCPAPEAEGAPSVFLFPPKPKDTLMISRTPEVTCVVVDVSHEDPEVKFNWYVDGVEVHNAKTKPREEQYNSTYRVVSVLTVLHQDWLNGKEYKCKVSNKALPAPIEKTISKAKGQPREPQVYTLPPSRDELTKNQVSLTCLVKGFYPSDIAVEWESNGQPENNYKTTPPVLDSDGSFFLYSKLTVDKSRWQQGNVFSCSVMHEALHNHYTQKSLSLSPGK
notes: ULBP-1 extracellular domain fused to the human IgG1 Fc mutein
B4: human ULBP2-Fc fusion polypeptide (Fc fusion)
chain: WSRAGRADPHSLCYDITVIPKFRPGPRWCAVQGQVDEKTFLHYDCGNKTVTPVSPLGKKLNVTTAWKAQNPVLREVVDILTEQLRDIQLENYTPKEPLTLQARMSCEQKAEGHSSGSWQFSFDGQIFLLFDSEKRMWTTVHPGARKMKEKWENDKVVAMSFHYFSMGDCIGWLEDFLMGMDSTLEPSAGAPLAMSSGTTQLRRSCDKTHTCPPCPAPEAEGAPSVFLFPPKPKDTLMISRTPEVTCVVVDVSHEDPEVKFNWYVDGVEVHNAKTKPREEQYNSTYRVVSVLTVLHQDWLNGKEYKCKVSNKALPAPIEKTISKAKGQPREPQVYTLPPSRDELTKNQVSLTCLVKGFYPSDIAVEWESNGQPENNYKTTPPVLDSDGSFFLYSKLTVDKSRWQQGNVFSCSVMHEALHNHYTQKSLSLSPGK
notes: ULBP-2 extracellular domain (residues 1-223) fused to the human IgG1 Fc mutein
B5: UL16-Fc fusion protein (Fc fusion)
chain: VDLGSKSSNSTCRLNVTELASIHPGETWTLHGMCISICYYENVTEDEIIGVAFTWQHNESVVDLWLYQNDTVIRNFSDITTNILQDGLKMRTVPVTKLYTSRMVTNLTVGRYDCLRCENGTTKIIERLYVRLGSLYPRPPGSGLAKHPSVSADEELSA
notes: extracellular domain; not shown: IgG1 Fc (mutein form), as described for OX40-Fc (Baum et al., EMBO J. 13:3992-4001, 1994); the mutein is described in p-
B6: Full length UL16 on transfected 293 EBNA cells (other)
chain: VDLGSKSSNSTCRLNVTELASIHPGETWTLHGMCISICYYENVTEDEIIGVAFTWQHNESVVDLWLYQNDTVIRNFSDITTNILQDGLKMRTVPVTKLYTSRMVTNLTVGRYDCLRCENGTTKIIERLYVRLGSLYPRPPGSGLAKHPSVSADEELSATLARDIVLVSAITLFFFLLALRIPQRLCQRLRIRLPHRYQRLRTED
notes: whole, on cells; also called UL16 FL

Key:
[1] = biological target: FLAG tagged Dap10 alone on transfected 293 EBNA cells (UniProt Q9UBK5); test: flow cytometry, transfected 293 EBNA cells, 2 µg Fc protein + goat anti-human IgG PE
[2] = biological target: Full length UL16 on transfected 293 EBNA cells (human cytomegalovirus) (UniProt P16757); test: as above
[3] = biological target: NKG2D alone on transfected 293 EBNA cells (UniProt P26718); test: as above
[4] = biological target: NKG2D/Dap10 on transfected 293E cells (UniProt P26718); test: as above
[5] = biological target: human ULBP1-Fc fusion polypeptide (human); test: flow cytometry; ULBP1/FC preincubated with excess isotype control antibody, then added to 293E cells transfected with NKG2D/Dap10; goat anti-huIg PE
[6] = biological target: human ULBP2-Fc fusion polypeptide (human); test: flow cytometry; ULBP2/FC preincubated with excess isotype control antibody, then added to 293E cells transfected with NKG2D/Dap10; goat anti-huIg PE
ULBP3/Fc (human) = ULBP3/Fc (human) (UniProt Q9BZM4); test: flow cytometry; ULBP3/FC preincubated with excess isotype control antibody, then added to 293E cells transfected with NKG2D/Dap10; goat anti-huIg PE
PERB11/Fc = test: flow cytometry; PERB11/FC preincubated with excess isotype control antibody, then added to 293E cells transfected with NKG2D/Dap10; goat anti-huIg PE
[7] = biological target: FLAG tagged Dap10 alone on transfected 293 EBNA cells (UniProt Q9UBK5); test: flow cytometry, transfected 293 EBNA cells, M1 + sheep anti-mouse IgG PE
[8] = biological target: Full length UL16 on transfected 293 EBNA cells (human cytomegalovirus) (UniProt P16757); test: as above
[9] = biological target: NKG2D alone on transfected 293 EBNA cells (UniProt P26718); test: as above
[10] = biological target: T1, NKG2D/Dap10 on transfected 293E cells; test: as above
[11] = biological target: T1, NKG2D/Dap10 on transfected 293E cells; test: flow cytometry; NKG2D/Dap10-transfected 293E cells, M1 + sheep anti-mouse IgG PE (expression control)
[12] = biological target: T1, NKG2D/Dap10 on transfected 293E cells; test: as above; remark: listed apart in the source
[13] = biological target: T1, NKG2D/Dap10 on transfected 293E cells; test: flow cytometry, transfected 293 EBNA cells, 2 µg Fc protein + goat anti-human IgG PE
[14] = biological target: T1, NKG2D/Dap10 on transfected 293E cells; test: flow cytometry; NKG2D/Dap10-transfected 293E cells preincubated with 25 µg ULBP1/LZ (competitor)
[15] = biological target: T1, NKG2D/Dap10 on transfected 293E cells; test: flow cytometry; NKG2D/Dap10-transfected 293E cells preincubated with 25 µg hCD40L/LZ (control blocking protein)
[16] = biological target: T2, NKG2D alone on transfected 293 EBNA …; test: flow cytometry, transfected 293 EBNA cells, 2 µg Fc protein + goat anti-human IgG PE
[17] = biological target: T3, FLAG tagged Dap10 alone on transfected …; test: as above
[18] = biological target: B6; test: as above
MICA/Fc = biological target: B1; test: flow cytometry on 293 EBNA cells transfected with full length UL16

Sequence of ULBP3/Fc (human) (Q9BZM4 30-217): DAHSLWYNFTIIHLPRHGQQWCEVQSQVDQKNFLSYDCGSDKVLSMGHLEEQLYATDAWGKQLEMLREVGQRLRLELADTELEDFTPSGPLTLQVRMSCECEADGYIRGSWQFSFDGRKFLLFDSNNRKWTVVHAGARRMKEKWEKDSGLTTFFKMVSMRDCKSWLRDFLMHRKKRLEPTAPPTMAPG

## p7.5/Fc (Fc fusion)
[1]
  Mean Fluorescence Intensity (MFI): 12.1 MFI
[2]
  Mean Fluorescence Intensity (MFI): 12.1 MFI
[3]
  Mean Fluorescence Intensity (MFI): 9.99 MFI
[4]
  Mean Fluorescence Intensity (MFI): 12.2 MFI

## antibody M90 (isotype matched control antibody)
[5]
  MFI of staining protein on NKG2D/Dap10 cells after preincubation with blocking antibody: 216 MFI
[6]
  MFI of staining protein on NKG2D/Dap10 cells after preincubation with blocking antibody: 192 MFI
ULBP3/Fc (human)
  MFI of staining protein on NKG2D/Dap10 cells after preincubation with blocking antibody: 160 MFI
PERB11/Fc
  MFI of staining protein on NKG2D/Dap10 cells after preincubation with blocking antibody: 167 MFI

## M1 anti-FLAG antibody
[7]
  Mean Fluorescence Intensity (MFI): 112 MFI
[8]
  Mean Fluorescence Intensity (MFI): 11.3 MFI
[9]
  Mean Fluorescence Intensity (MFI): 8.49 MFI
[10]
  Mean Fluorescence Intensity (MFI): 130 MFI
[11]
  Mean Fluorescence Intensity (MFI): 368 MFI
[12]
  Mean Fluorescence Intensity (MFI): 261 MFI

## PERB11/Fc (Fc fusion)
[1]
  Mean Fluorescence Intensity (MFI): 12.7 MFI
[2]
  Mean Fluorescence Intensity (MFI): 161 MFI
[3]
  Mean Fluorescence Intensity (MFI): 10.2 MFI
[13]
  Mean Fluorescence Intensity (MFI): 109 MFI
[14]
  Mean Fluorescence Intensity (MFI): 11 MFI
[15]
  Mean Fluorescence Intensity (MFI): 280 MFI

## B1
[13]
  Mean Fluorescence Intensity (MFI): 120 MFI
[16]
  Mean Fluorescence Intensity (MFI): 15.4 MFI
[17]
  Mean Fluorescence Intensity (MFI): 12 MFI
[18]
  Mean Fluorescence Intensity (MFI): 14 MFI
[14]
  Mean Fluorescence Intensity (MFI): 11 MFI
[15]
  Mean Fluorescence Intensity (MFI): 256 MFI

## B2
[13]
  Mean Fluorescence Intensity (MFI): 118 MFI
[16]
  Mean Fluorescence Intensity (MFI): 9.58 MFI
[17]
  Mean Fluorescence Intensity (MFI): 18.4 MFI
[18]
  Mean Fluorescence Intensity (MFI): 94.5 MFI
[14]
  Mean Fluorescence Intensity (MFI): 9 MFI
[15]
  Mean Fluorescence Intensity (MFI): 258 MFI

## B3
[13]
  Mean Fluorescence Intensity (MFI): 115 MFI
[16]
  Mean Fluorescence Intensity (MFI): 10.4 MFI
[17]
  Mean Fluorescence Intensity (MFI): 13.6 MFI
[18]
  Mean Fluorescence Intensity (MFI): 142 MFI
[14]
  Mean Fluorescence Intensity (MFI): 11 MFI
[15]
  Mean Fluorescence Intensity (MFI): 263 MFI

## B4
[13]
  Mean Fluorescence Intensity (MFI): 117 MFI
[16]
  Mean Fluorescence Intensity (MFI): 8.96 MFI
[17]
  Mean Fluorescence Intensity (MFI): 11.5 MFI
[18]
  Mean Fluorescence Intensity (MFI): 121 MFI
[14]
  Mean Fluorescence Intensity (MFI): 8 MFI
[15]
  Mean Fluorescence Intensity (MFI): 236 MFI

## B5
[13]
  Mean Fluorescence Intensity (MFI): 21.2 MFI
[16]
  Mean Fluorescence Intensity (MFI): 27.9 MFI
[17]
  Mean Fluorescence Intensity (MFI): 39.2 MFI
[18]
  Mean Fluorescence Intensity (MFI): 17.9 MFI

## B6
MICA/Fc
  binding result: no binding (tested: 2 µg)
